Tests used:
[1] = biological target: T1, human PD-1 extracellular region with the transmembrane and intracellular regions of murine CD28, expressed on … (human; mouse, UniProt Q15116 25-170; P31041 151-218, limits assumed); assay: flow cytometry on transfected HEK 293T cells
T1 construct: extracellular domain;domain: transmembrane and intracellular regions; also called human PD-1 transfectants
Procedure: (§1) Constructs encoding the human extracellular region of PD-1 with the transmembrane and intracellular regions of murine CD28 were cloned into the bi-cistronic mammalian expression vector pGFP2-n2 from BioSignal Packard Ltd, which also encodes GFP. Mutant constructs varying by one amino acid were prepared using the “drastic” mutagenesis approach (Davis el al. Proc Natl Acad Sci USA. 95, 5490-4 (1998)). Plasmids (2 μg/well) were transfected into HEK-293T cells in 6 well plates using Genejuice transfection reagent (Novagen; 6 μl/well). Mock and no-transfection controls were included with each experiment. Cells were harvested at 18-24 hours and stained with anti-PD1 antibodies or isotype controls at 10 μg/ml in PBS-azide for 1 h at 4° C. Cells were washed with PBS-Azide, pelleted at 1500 rpm/5 min and primary antibodies were labelled with Alexa647-conjugated donkey anti-mouse IgG (5 μg/ml) in PBS-Azide for 30 min at 4° C. Cells were washed as above and resuspended in 200 μl PBS-Azide before being analysed at the flow cytometer. Propidium iodide (5 μg/ml) was added immediately prior to analysis to identify dead cells. GFP-positive (transfected) viable cells were gated and analysed for binding of anti-PD1 antibodies. […]

[2] = biological target: T2, human PD-1 extracellular region / murine CD28 chimera, mutant L16R, on HEK-293T cells (human; mouse, UniProt Q15116 25-170; P31041 151-218, L16R); assay: flow cytometry on transfected HEK-293T cells
T2 construct: extracellular domain;domain: transmembrane and intracellular regions; Single-residue 'drastic' mutant of m4; constructs elsewhere are counted on the mature polypeptide
Procedure: as §1

[3] = biological target: T3, human PD-1 extracellular region / murine CD28 chimera, mutant R118D, on HEK-293T cells (human; mouse, UniProt Q15116 25-170; P31041 151-218, R118D); assay: flow cytometry on transfected HEK-293T cells
T3 construct: extracellular domain;domain: transmembrane and intracellular regions; Single-residue 'drastic' mutant of m4
Procedure: as §1

T1 sequence (Q15116 other isoform, or with tags, fused parts or gaps limits assumed, change not shown): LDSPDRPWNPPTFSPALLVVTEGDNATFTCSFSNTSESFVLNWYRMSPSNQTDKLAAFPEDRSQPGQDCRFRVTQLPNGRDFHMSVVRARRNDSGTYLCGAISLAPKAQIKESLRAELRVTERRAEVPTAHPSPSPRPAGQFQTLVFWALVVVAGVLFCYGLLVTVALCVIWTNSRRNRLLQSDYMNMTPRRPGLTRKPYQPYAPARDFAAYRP
T2 sequence (Q15116 other isoform, or with tags, fused parts or gaps L16R | L16R L16R): as the sequence (Q15116 other isoform, or with tags, fused parts or gaps limits assumed, change not shown) above, with L17R counted along it
T3 sequence (Q15116 other isoform, or with tags, fused parts or gaps R118D | R118D R118D): as the sequence (Q15116 other isoform, or with tags, fused parts or gaps limits assumed, change not shown) above, with R119D counted along it

binding result [1]	binding result [2]	binding result [3]	Binder
binds	–	–	Clone 2 anti-PD-1 antibody (antibody, V domains shown, The printed VH ends at ...TV) VH: QVQLQQPGAELVKPGASVKLSCKASGYTFTTYYLYWVRQRPGQGLEWIGGINPSNGGTNFNEKFKSKATLTVDKSSSTAYMQLNSLTSEDSAVYYCTRRDYRYDRGFDYWGQGTSVTV VL: DIVLTQSPASLAVSLGQRATISCRASKSVSTSGFNYIHWYQQKPGQPPKLLIYLASNLESGVPARFSGSGSGTDFTLNIHPVEDEDAATYYCQHSRELPLTFGAGTKLEIK
–	no binding (tested: 10 µg/ml)	no binding (tested: 10 µg/ml)	Clone 19 anti-PD-1 antibody (antibody, IgG1, V domains shown, The printed VH ends at ...TV) VH: QVQLQQSGAELVKPGASVKMSCKAFGYTFTTYPIEWMKQNHGKSLEWIGNFHPYNDDTKYNEKFKGKAKLTVEKSSTTVYLELSRLTSDDSAVYYCARENYGSHGGFVYWGQGTLVTV VL: ENVLTQSPAIMSASPGEKVTMTCRASSSVISSYLHWYQQKSGASPKLWIYSTSNLASGVPDRFSGSGSGTSYSLTISSVEAEDAATYYCQQYNGYPLTFGAGTKLEIK

Reference: patent publication US20110171215A1 (ISIS INNOVATION, published 2011)
